T1: FZD5 CRD (Homo sapiens, UniProt Q13467)
T1 construct: K29-T156; GPI anchor signal (C); expressed in transfected cells; host or cells: CHO cells, lentiviral pLenti-puro
T1 sequence (Q13467 29-156): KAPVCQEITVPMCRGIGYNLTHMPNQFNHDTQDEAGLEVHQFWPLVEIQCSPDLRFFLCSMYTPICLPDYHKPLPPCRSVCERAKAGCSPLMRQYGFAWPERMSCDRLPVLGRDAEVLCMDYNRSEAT

T2: FZD8 CRD (Homo sapiens, UniProt Q9H461)
T2 construct: K31-D155; GPI anchor signal (C); expressed in transfected cells; host or cells: CHO cells, lentiviral pLenti-puro
T2 sequence (Q9H461 31-155): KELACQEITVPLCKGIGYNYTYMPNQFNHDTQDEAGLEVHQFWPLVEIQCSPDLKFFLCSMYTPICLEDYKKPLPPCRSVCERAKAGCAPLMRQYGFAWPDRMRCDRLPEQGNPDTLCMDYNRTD

T3: FZD6 CRD (Homo sapiens, UniProt O60353)
T3 construct: S20-P146; GPI anchor signal (C); expressed in transfected cells; host or cells: CHO cells, lentiviral pLenti-puro
T3 sequence (O60353 20-146): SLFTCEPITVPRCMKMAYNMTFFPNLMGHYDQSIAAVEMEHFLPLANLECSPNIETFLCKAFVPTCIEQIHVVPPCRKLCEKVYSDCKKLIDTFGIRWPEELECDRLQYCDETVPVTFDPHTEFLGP


Assays:
[1] = test system: RWP1 cells; test: Effect of anti-FZD5 Fabs on proliferation of pancreatic cancer cell lines (percent growth inhibition); format: cell-based, human; conditions: Fab 2 μg/ml
[2] = test system: PATU8988S cells; test: as above; format: cell-based, human; conditions: Fab 2 μg/ml
[3] = test system: RWP1 cells; test: as above; format: cell-based, human; conditions: Fab 10 μg/ml
Method: (§1) The effect of presently disclosed anti-FZD5 Fabs on proliferation of RNF43 loss-of-function mutant pancreatic cancer cell lines HPAFII, PATU8988S and ASPC-1; and on pancreatic cancer cell line RWP1, was tested at […] and 10 μg/ml.

[4] = test system: PATU8988S cells; test: as above; format: cell-based, human; conditions: Fab 10 μg/ml
Method: as §1

[5] = test system: HPAFII cells; test: as above; format: cell-based, human; conditions: for percent growth inhibition, HPAFII 2 μg/ml: Fab 2 μg/ml; for percent growth inhibition, HPAFII 10 μg/ml: Fab 10 μg/ml
Method: as §1

[6] = test system: ASPC-1 cells; test: as above; format: cell-based, human; conditions: Fab 10 μg/ml
Method: as §1

[7] = target: T1, FZD5 CRD; test: Immunofluorescence of anti-FZD5 Fab binding to CHO cells overexpressing Frizzled CRD; parameters: key: −: no binding; +: very weak binder; ++: weak binder; +++: good binder; ++++: very good binder
Method: (§2) Plasmids: pLCKO lentiviral vector used for knockout (TKO) library construction and expression of individual gRNAs was constructed as described previously (Hart et al., 2015). Briefly, single guide RNA (sgRNA) scaffold was amplified from px330 (Addgene 42230) and cloned into pLKO.TRC005 lentiviral vector (Broad Institute, Cambridge, Mass.) using AgeI/EcoRI restriction sites. BfuAI sites were added at the 5′ end of the sgRNA scaffold for cloning the TKO library or individual gRNA target sequences. Lenti Cas9-2A-BsdR vector used to generate Cas9 stable expression cell lines was constructed as described previously (Hart et al., 2015). Briefly, lentiCRISPR pXPR_001 (Addgene 49535) was modified through removal of the sgRNA scaffold region through NdeI/EcoRI digest and blunt ends generation using Large Klenow Fragment (NEB). 2A-puro was replaced with 2A-BsdR by PCR using the NheI/MluI sites. Each of the 10 human Frizzled cysteine rich domains (CRDs) were cloned into the lentiviral expression plasmid pLenti-puro in the following cassette: FZD_CRD-MYC-GPI.
(§3) To confirm that the FZD5-WNT7B circuit is not driven simply by expression and rule out the possibility of a disconnect between RNA and protein levels for the Wnt receptors in HPAF-II cells, a panel of recombinant Fabs were generated, alternatively referred to herein as ‘Frizzled profiler’, that can detect and discriminate all but one of the ten Frizzled receptors. […] To characterize the binding specificity of these Fabs on cells, a panel of 10 CHO cell lines was generated, each expressing the CRD domain of a different myc-tagged Frizzled family member anchored at the plasma membrane through a GPI anchor (CHO-myc-FZDGPI). Despite the high sequence identity between Frizzled family members (FIG. 7A, FIG. 7B), selective Fabs were identified for FZD4, FZD5, FZD6 and FZD10 as assessed by immunofluorescence and flow cytometry (FIG. 7D and FIG. 8). […] The FZD8 CRD is most homologous to that of FZD5 (FIG. 7B). These Fabs can be used to discriminate expression of FZD1, FZD2, FZD4, FZD5, FZD6, FZD7, FZD8, FZD9 and FZD10 (FIG. 7D and FIG. 8). The ‘Frizzled profiler’ therefore consists of 10 different Fabs that can be used to discriminate expression of 9 different Frizzled family members. The Frizzled profiler was then used to confirm that HPAF-II cells express FZD1, FZD5, FZD6 and possibly FZD8 (FIG. 7E).
(§4) The binding of anti-FZD5 Fabs to cell surface-expressed Frizzled protein was further determined for each member of the Frizzled family via flow cytometry and immunofluorescence analysis of a panel of 10 CHO cell lines, each ectopically over-expressing the extracellular cysteine-rich domain (CRD) of a different Frizzled protein family member.

[8] = target: T4, FZD2 CRD (Homo sapiens, UniProt Q14332); test: as above; parameters: key: −: no binding; +: very weak binder; ++: weak binder; +++: good binder; ++++: very good binder
T4 construct: D35-P161; GPI anchor signal (C); expressed in transfected cells; host or cells: CHO cells, lentiviral pLenti-puro
Method: as §2, §3, §4

[9] = target: T2, FZD8 CRD; test: as above; parameters: key: −: no binding; +: very weak binder; ++: weak binder; +++: good binder; ++++: very good binder
Method: as §2, §3, §4

[10] = target: T5, FZD7 CRD (Homo sapiens, UniProt O75084); test: as above; parameters: key: −: no binding; +: very weak binder; ++: weak binder; +++: good binder; ++++: very good binder
T5 construct: D45-S169; GPI anchor signal (C); expressed in transfected cells; host or cells: CHO cells, lentiviral pLenti-puro
Method: as §2, §3, §4

[11] = target: T3, FZD6 CRD; test: as above; parameters: key: −: no binding; +: very weak binder; ++: weak binder; +++: good binder; ++++: very good binder
Method: as §2, §3, §4

[12] = test system: ASPC-1 cells; test: Effect of anti-FZD5 Fabs on proliferation of pancreatic cancer cell lines (percent growth inhibition); format: cell-based, human; conditions: Fab 2 μg/ml
[13] = test system: CHO cells not expressing Frizzled CRD; test: Flow cytometry of anti-FZD5 Fab binding to CHO cells not expressing Frizzled CRD (background)
From the text: as §4

Molecule	percent growth inhibition, RWP1 2 μg/ml [1] [%]	percent growth inhibition, PATU8988s 2 μg/ml [2] [%]	percent growth inhibition, RWP1 10 μg/ml [3] [%]	percent growth inhibition, PATU8988s 10 μg/ml [4] [%]	percent growth inhibition, HPAFII 2 μg/ml [5] [%]	percent growth inhibition, HPAFII 10 μg/ml [5] [%]	percent growth inhibition, ASPC-1 10 μg/ml [6] [%]	Immunofluorescence binding, Frizzled CRD overexpressed on CHO cells: FZD5 [7]	Immunofluorescence binding, Frizzled CRD overexpressed on CHO cells: FZD2 [8]	Immunofluorescence binding, Frizzled CRD overexpressed on CHO cells: FZD8 [9]	Immunofluorescence binding, Frizzled CRD overexpressed on CHO cells: FZD7 [10]	Immunofluorescence binding, Frizzled CRD overexpressed on CHO cells: FZD6 [11]	percent growth inhibition, ASPC-1 2 μg/ml [12] [%]	Median fluorescence, Frizzled CRD overexpressed on CHO cells: None [13]
Fab-2923: anti-FZD5 Fab with antibody variable region Fv-2923; CDR SEQ ID NOs: 35, 36, 62, 100, 138, 162 (antibody, V domains shown) VH: EVQLVESGGGLVQPGGSLRLSCAASGFNLYYYYMHWVRQAPGKGLEWVASIYSSSGSTSYADSVKGRFTISADTSKNTAYLQMNSLRAEDTAVYYCARGAMDYWGQGTLVTVSS VL: DIQMTQSPSSLSASVGDRVTITCRASQSVSSAVAWYQQKPGKAPKLLIYSASSLYSGVPSRFSGSRSGTDFTLTISSLQPEDFATYYCQQWYGYSALITFGQGTKVEIK	35.90	−18.54	40.29	−19.05	15.14	18.17	34.00	++++	−	+	−	−	35.27	
Fab-2926: anti-FZD5 Fab with antibody variable region Fv-2926; CDR SEQ ID NOs: 35, 36, 65, 103, 141, 173 (antibody, V domains shown) VH: EVQLVESGGGLVQPGGSLRLSCAASGFNIYSSYMHWVRQAPGKGLEWVASIYPSSSSTSYADSVKGRFTISADTSKNTAYLQMNSLRAEDTAVYYCARGGLDYWGQGTLVTVSS VL: DIQMTQSPSSLSASVGDRVTITCRASQSVSSAVAWYQQKPGKAPKLLIYSASSLYSGVPSRFSGSRSGTDFTLTISSLQPEDFATYYCQQWYHGGSLFTFGQGTKVEIK	37.95	−15.89	40.20	−36.54	−6.88	4.88	24.71	++++	−	+	−	−	17.27	
Fab-2925: anti-FZD5 Fab with antibody variable region Fv-2925; CDR SEQ ID NOs: 35, 36, 64, 102, 140, 172 (antibody, V domains shown) VH: EVQLVESGGGLVQPGGSLRLSCAASGFNLSYSSMHWVRQAPGKGLEWVASIYPSYGSTYYADSVKGRFTISADTSKNTAYLQMNSLRAEDTAVYYCARYGYFGLDYWGQGTLVTVSS VL: DIQMTQSPSSLSASVGDRVTITCRASQSVSSAVAWYQQKPGKAPKLLIYSASSLYSGVPSRFSGSRSGTDFTLTISSLQPEDFATYYCQQAWVYASLFTFGQGTKVEIK	30.69	−8.12	33.53	−22.86	−11.24	−17.38	−3.44	++++		−	++	−	−0.26	3.55
Fab-2911: anti-FZD5 Fab with antibody variable region Fv-2911; CDR SEQ ID NOs: 35, 36, 50, 89, 126, 163 (antibody, V domains shown) VH: EVQLVESGGGLVQPGGSLRLSCAASGFNIYYSSMHWVRQAPGKGLEWVAYIYPYSGYTSYADSVKGRFTISADTSKNTAYLQMNSLRAEDTAVYYCARYFWWYGFDYWGQGTLVTVSS VL: DIQMTQSPSSLSASVGDRVTITCRASQSVSSAVAWYQQKPGKAPKLLIYSASSLYSGVPSRFSGSRSGTDFTLTISSLQPEDFATYYCQQGPWYPFTFGQGTKVEIK	20.34	8.24			2.08			++	+++	−	+++	−	3.18	4.53
